B1: PLK2 (parent)
chain: YAELGQCSVFPATDAPEQFISQVT

Variants of: B1
Assay: protein stability index of a GFP-peptide fusion (GPS, HEK-293T) (PSI 1-6); higher = more stable
Conditions: c terminus: a fixed tail appended
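Also: lentivirally expressed fusions sorted by FACS into six bins by GFP to DsRed ratio, PSI derived from sequencing read proportions per bin multiplied by bin number.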

Protein stability index, by site and new letter:
S21: H 1.8 | C 1.53 | K 2.35 | F 1.82 | E 2.75 | I 2.64 | D 2.72 | G 2.26 | L 2.59 | A 1.64
A12: W 2.14 | P 2.47 | S 2.1 | V 2.1 | Q 2.6 | Y 1.95 | T 2.22 | R 1.63
E17: S 2.06 | Q 2.9 | V 1.78 | M 1.6 | R 1.62 | G 2.15 | Y 2.64 | N 1.95 | F 2.18 | L 2.33 | T 2.6 | H 1.86 | I 1.75 | C 1.79 | P 2.12 | K 2.32 | W 3.35 | A 1.92
I20: P 2.24 | L 2.11 | W 1.27 | Y 1.7 | A 2.13 | K 2.15 | Q 2.31 | V 2.84 | H 2.96 | N 2.65 | S 3.25 | T 2.27 | F 2.54 | R 2.53 | G 2.69 | E 2.69 | M 2.35 | D 2.75
P16: H 1.58 | T 2.05 | Q 2.44 | L 1.84 | N 2.35 | I 1.74 | M 1.91 | V 1.66 | F 1.64 | W 2.84 | G 1.89 | A 1.8 | K 1.87 | R 1.84 | Y 1.79 | C 2.04 | S 2.33 | E 2.66 | D 2.53
D14: S 2.09 | T 1.94 | N 2.13 | K 1.96 | F 2.04 | A 1.46 | R 1.7 | V 1.78 | H 1.97 | M 1.75 | P 1.88 | Q 1.91 | G 2 | Y 2.56 | C 1.86 | L 1.62 | E 2.05 | I 2.02
A15: E 2.6 | D 2.27 | I 1.96 | Y 2.13 | K 2.29 | R 2.21 | F 1.98 | G 2.38 | T 2.19 | L 2.31 | M 2.18 | S 1.83 | P 2.47 | W 2.29 | H 2.58 | V 2.22 | C 2 | N 2.33 | Q 2.17
Q18: E 2.87 | H 2.19 | W 2.21 | P 2.01 | T 2.13 | D 2.98 | M 2 | F 2.15 | A 1.87 | S 2.29 | G 2.82 | C 1.84 | R 1.88 | K 2.08 | V 2.49 | I 2.02 | Y 2.26 | L 2 | N 2.73
T13: A 2.49 | I 1.81 | H 2.2 | W 1.89 | E 3.45 | K 2 | G 2.32 | N 2.5 | R 2.22 | F 1.33 | P 2.17 | V 2.2 | D 2.8 | M 2.11 | S 2.37 | C 1.97 | L 1.92 | Q 2.57 | Y 1.62
F19: P 2.4 | M 2.43 | V 2.28 | Q 2.81 | Y 1.94 | E 3.01 | T 2.7 | R 3.85 | G 2.38 | D 2.87 | C 1.96 | W 1.9 | A 2.19 | N 2.92 | H 3.16 | I 2.28 | K 2.97 | S 2.01 | L 2.36
